Assay results as given in publication PMC10858965.

How the values were obtained:
Assay in all cases: filter binding
Conditions in all cases: 1 mM MgCl2 in FB buffer; Filter binding: 3 parts FB buffer (50 mM Tris pH 8.0, 1 mM MgCl2) + 1 part SEC buffer (20 mM HEPES pH 7.5, 150 mM NaCl, 1 mM DTT, 10% glycerol), 5 min, room …
[1] = tested on: Lig4 mDBD1;XRCC4 (Xenopus laevis;Xenopus laevis?)
[2] = tested on: Lig4 mDBD1+2;XRCC4 (Xenopus laevis;Xenopus laevis?)
[3] = tested on: Lig4 delta-DBD;XRCC4 (Xenopus laevis;Xenopus laevis?)
[4] = tested on: Lig4 mDBD2;XRCC4 (Xenopus laevis;Xenopus laevis?)

~1 kb circular DNA was tested, and the binding signal (fold weaker than WT) [1] was 10, the binding signal (fold weaker than WT) [2] was 30 and the binding signal (fold weaker than WT) [3] was 30. It also gave a binding signal (fold weaker than WT) [4] of 10.
